From US7267993 (AUBURN UNIVERSITY, dated 2007)

B1: EKTLAYNQ (other)
major coat protein pVIII carrying the foreign peptide: EKTLAYNQ
notes: landscape phage immobilized in ELISA wells
B2: EKTLAYSQ (other)
major coat protein pVIII carrying the foreign peptide: EKTLAYSQ
notes: as for B1
B3: VPEYTGPS (other)
major coat protein pVIII carrying the foreign peptide: VPEYTGPS
notes: landscape phage immobilized in ELISA wells; belongs to group m4
B4: VPEYKGAS (other)
major coat protein pVIII carrying the foreign peptide: VPEYKGAS
notes: as for B3
B5: DTFAKSMQ (other)
major coat protein pVIII carrying the foreign peptide: DTFAKSMQ
notes: as for B1
B6: VTFAAANT (peptide)
major coat protein pVIII carrying the foreign peptide: VTFAAANT

How the values were obtained:
[1] = target: T1, β-galactosidase from Escherichia coli (Escherichia coli, UniProt P00722 2-1024 = β-galactosidase); assay: direct ELISA: phage immobilized in wells, unlabeled β-galactosidase in solution at varied concentration [bottom panel]
T1 construct: Unlabeled in the ELISA; in solution in all assays; also called b-galactosidase
Excerpt: (§1) Each binding curve is labeled with the altered amino acid sequence of the foreign peptide carried by the phage being tested (V_o=vector control). ELISA signal (mOD/min) is shown as a function of ligand concentration (micrograms/ml for top two panels; nanomolar for bottom panel).
(§2) *Escherichia coli*). Each protein was absorbed to the surface of a 35-mm polystyrene Petri dish and exposed to the phage library. Unbound phage were washed away, and bound phage was eluted with acid buffer and amplified by infecting fresh bacterial host cells. […] The selected phage were further characterized by enzyme linked immuno sorbent assay (ELISA) in which the phage were immobilized on the plastic surface of ELISA wells and reacted with the ligands in solution phase. Neutravidin and streptavidin were labeled with alkaline phosphatase, while β-galactosidase was unlabeled. […] Inhibition ELISAs verified that non-immobilized peptide-bearing phage compete with immobilized phage for binding to their respective ligands.

[2] = target: T2, neutravidin (chicken (stated for avidin), UniProt P02701 25-152); assay: direct ELISA: phage immobilized in wells, alkaline phosphatase-labeled neutravidin in solution at varied concentration [top panel]
T2 construct: Labeled with alkaline phosphatase in the ELISA; also called alkaline phosphatase-labeled neutravidin; avidin (from chicken egg white)
Excerpt: as §1, §2

[3] = target: β-galactosidase from Escherichia coli (Escherichia coli) [β-galactosidase: P00722]; assay: direct ELISA: phage immobilized in wells, unlabeled β-galactosidase in solution at varied concentration [bottom panel]
β-galactosidase from Escherichia coli (Escherichia coli) [β-galactosidase: P00722], sequence (P00722 2-1024 limits assumed): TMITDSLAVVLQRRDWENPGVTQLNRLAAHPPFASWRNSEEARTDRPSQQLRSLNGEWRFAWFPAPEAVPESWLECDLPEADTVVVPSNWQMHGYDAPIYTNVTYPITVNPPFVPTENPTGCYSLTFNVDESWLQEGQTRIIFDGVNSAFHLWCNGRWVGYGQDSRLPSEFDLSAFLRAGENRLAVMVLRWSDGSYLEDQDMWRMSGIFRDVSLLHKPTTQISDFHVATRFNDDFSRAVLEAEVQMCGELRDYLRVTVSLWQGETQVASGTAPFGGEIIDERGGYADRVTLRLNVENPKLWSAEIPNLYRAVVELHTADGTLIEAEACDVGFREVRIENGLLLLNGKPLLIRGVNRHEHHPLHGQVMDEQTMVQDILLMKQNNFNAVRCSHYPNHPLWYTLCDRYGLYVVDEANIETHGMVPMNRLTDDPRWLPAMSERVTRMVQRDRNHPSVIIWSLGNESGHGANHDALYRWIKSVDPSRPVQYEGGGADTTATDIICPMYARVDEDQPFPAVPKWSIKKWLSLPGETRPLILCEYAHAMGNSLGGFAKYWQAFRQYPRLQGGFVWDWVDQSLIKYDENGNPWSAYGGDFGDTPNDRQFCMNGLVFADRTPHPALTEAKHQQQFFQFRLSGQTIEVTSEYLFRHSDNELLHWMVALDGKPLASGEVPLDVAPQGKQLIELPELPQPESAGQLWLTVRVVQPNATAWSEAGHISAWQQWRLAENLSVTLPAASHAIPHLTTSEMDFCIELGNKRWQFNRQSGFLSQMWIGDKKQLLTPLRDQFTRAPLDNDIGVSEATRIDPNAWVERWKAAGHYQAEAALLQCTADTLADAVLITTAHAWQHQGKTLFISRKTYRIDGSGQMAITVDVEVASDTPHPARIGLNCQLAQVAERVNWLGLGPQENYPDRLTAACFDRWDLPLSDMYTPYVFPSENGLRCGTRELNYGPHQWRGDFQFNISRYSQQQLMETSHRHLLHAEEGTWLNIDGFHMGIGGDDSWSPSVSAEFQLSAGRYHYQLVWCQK

T1 sequence (P00722 2-1024 limits assumed): as above
T2 sequence (P02701 25-152 limits assumed): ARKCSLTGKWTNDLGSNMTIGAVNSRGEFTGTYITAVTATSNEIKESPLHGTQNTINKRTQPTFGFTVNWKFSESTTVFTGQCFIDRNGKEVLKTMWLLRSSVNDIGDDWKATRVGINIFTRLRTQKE

Binder	EC50 (read off the curve) [1] [nM]	EC50 (read off the curve) [2] [micrograms/ml]	other results
B1	~40		
B2	~70		
B3		~3	
B4		~3	
B5	~60		
B6			EC50 (read off the curve) [3]: 100 nM
